Reference: the DeepSol protein solubility set

Assay: soluble on expression in E. coli; label from the status in PepcDB or PDB records

Sequence	soluble on expression in E. coli
MNDRYTNVKIGLEIHVQLSNAGSKLFCGCDSEYRGYKPNTNVCPVCLGLPGALPVPSRRPIVLAIAASMALGCRVPGTVVFTRKHYFYPDLPKNYQITQFEKAGGAPVCMGGVLEYLNTDSWRWERARIRRINLEEDPGKTYYEGSILTSRYALVDYNRSGVPLLEIVTEPDIPSPRHARMLIDYLLLTLEYIGATNPRLEGVFRVDANISIEGGERVEVKNIGSTQDVEKALKFEISRQRLIVERGGKVERETRHWDAERGMTKPLRLKEEEADYLYFPDPDLPPVEITEDMLAEAEKLASKTPGTIYREIESMGVRREIAWSITSTLPAARLFLEAVKLGADPRIAARLVGVDLKGELKEMGKDLYSPNNWPPPQSIAILSNLVARGDYTYDSIKGLVVPKLAANPGSDVKSLLPEKVKDIERLVEEVLNREKRAVQDYLAGKKKALNYLVGQVMRAAKGRALDPRQAREILLRRLSTVKEEDR	soluble
MGAIKVEIKSGALLISPSEFKERYLPTLQDMPVLAFVRNIEAPKSWYSYLISNIEDQKSSIFPTNLPRILEISRRYFSSVKNGIVVIDALEYLTIYNGFEAIAKFLATLRDFAILDNGTVIIITEKKAWKDREWALLTSLLGKLEHHHHHH	not soluble
MSLNVFDATLKRLEYIFEEFDKVYFSFSGGKDSGLMVQLANLVAEKLDRNFDLLILNIEANYTATVDFIKKIEQLPRVKNIYHFCLPFFEDNNTSFFQPQWKMWDPSEKEKWIHSLPKNAITLENIDDGLKKYYSLSNGNPDRFLRYFQNWYKEQYPQSAISCGVGIRAQESLHRHSAVTKGENKYKNRCWINITLEGNILFYPLFDWKVGDIWAATFKCELEYNYIYEKMYKIGYKYRDMREGHHHHHH	soluble
MVESTRVRSKRLSFSGKKTLSSFMQVNIASLRQSGKLRTSETYRATLNSFMKFMDGKDVLLSNMDAELMMGYETYLKAQGASMNTVSFYMRILRATYNRAVDKGVIRQRFPFKHVYTGVEKTVKRAISFKVIRQLKEMDLSHSQSMEFARDMFMFSFYTRGMSFVDMAFLKKTDLNNGMLTYRRKKTGQLLSIRWEKCMQDIVDKYPGNYSTYLLPIIIHIRKDERLQYKNSICLVNRRLKEIGKKLGLVHPLTMYVARHSWASVARGKHIPLSVISEGMGHDSEKTTLIYLAALDTTVIDKANMVVLREFL	not soluble
MAITVKGLTNKLTRTQRRIAVVEFIFSLLFFLPKEAEVIQADFLEYDTKERQLNEWQKLIVKAFSENIFSFQKKIEEQQLKNQLEIQTKYNKISGKKIDLLTTAVVLCALSEQKAHNTDKPLLISEALLIMDHYSQGAEKKQTHALLDKLL	soluble
MGSDKIHHHHHHMKLSMPRFDQAPVLVVGDVMLDRYWHGGTSRISPEAPVPVVKVDQIEDRPGGAANVALNIAALGAPASLVGVTGDDEAAESLTNSLKAAGVVARFQRIADQPTIVKLRVMSRHQQLLRIDFEEPFNTDPLALSAEVYSLLDGIKVLVLSDYGKGALKNHQALIQAARKRGIPVLADPKGKDFAIYRGASLITPNLSEFEAIVGHCEDEAQLVTKGAQLMQELDLGALLVTRGEHGMTLLRPDQQALHLPARAREVFDVTGAGDTVISTLAAAIAAGEELPHAVALANLAAGIVVGKLGTAAISAPELRRAIQREEGSERGVLGLEQLLLAVDDARAHKEKIVFTNGCFDILHAGHVTYLEQARAQGDRLIVAVNDDASVSRLKGPGRPINSVDRRMAVLAGLGAVDWVISFPEGTPENLLTHVKPDVLVKGGDYGIDQVVGADIVQAYGGEVRVLGLVENSSTTAIVEKIRGQG	not soluble
MKANSDELQSFVSVVDSGSISAAAEQMGLTASAVSRTLSRLEHKLGTTLLNRTTRRMELTEEGRYFLDQARQILQQMEALEERLALRRQSPAGRLRINAASPFMLHAVVPHIGEFRRLYPDIQLELNTNDLIIDLLEQRTDVAIRIGALSDSTLHARPLGASRLHILASPEYLARHGTPASIEGLRGHTLLGFTQPEHLNRWPVVHADGDRLEIQPDISASSGETLRQLALSHQGIACLASFMTDRDIQDGRLVPLFAEQMSEYRQPIHAVYYRNSQLALRIQCFLDFIQQRLGA	not soluble
MDTIDLGNNESLVYGVFPNQDGTFTAMTYTKSKTFKTENGARRWLERNSGE	soluble
MSLEPDNQTPLKILVTGASGFVGLRVLTQAQNIGYALVAQSRSQQPYSFEQVLLDITPNTDWERALVGVDCVVHCAARVHQMQETEADALKAYRDVNTQGTLNLAKQAVSAGVKRFIFLSSIKVNGEQTKAGSAFQHDDQHIPSDPYGLSKYEAEQQLLELAAETGLEVVIIRPPLVYGEGVKANFLSMMNWVKKQIPLPLGAVGNMRSLVYLDNLVDLILVCCQHPKAAGEIFLVSDNHDVSLTTLLRTIAQAMQIRPRLLPIPQTGLQWLLRLLGKPELGQRLCGNLQLDIAHTQKTLHWSPPVSFEQGIARTVNFYLSQSSKEGHHHHHH	soluble
MGSDKIHHHHHHMYQEISKLLMYGDLPQDEILYKLGQLFEQFEVGEYNKTELVRDINTQVKRILKVATDYGFDDNLWHNYLTFFLMMSENPFSITCEKVGASDGSVNGLVANDFRIFKKLFDYDFKPIESALGIDCFTQISNYKAIVKKDLMYNHNVSEKVRALSKKLEAAKDEQEFFDVVTGFYKAYGVGMFGLNKAFRIEEHLDGGFSFMPINNMDAVMLDDLIGYEIQKKKLTDNTEAFVQGKKANNVLLFGDSGTGKSTSIKAIVNQYYDDGLRMIEIYKHQFKYLSKIIAAIKNRNYRFIIYMDDLSFEEHEIEYKFLKAVIEGGVETKPDNILIYATSNRRHLIKETWNDRNDQDNSNDKHHSDTVEEKLSLVNRFGVTISYSKPSQKEFFNIVTELARKSGCTLSDEELCREANKWELSHGGISGRTATQFVNYIMANN	not soluble
MNTFGTRLKFTSFGESHGVAVGCIIDGMPAGVKFDEEFLQNELDKRKGGSKFATPRKESDKAQVLSGVFEGYTTGHPIAIVVFNENAHSKDYDNLKDLFRPAHADFTYFYKYGIRDHRGGGRSSARESVARVAGGAVAAMLLREFDICVQSGVFGVGTFVSNLKEEEFDFEFAKKSEIFCLDPKLESDFKNEILNARNSKDSVGAAVFTKVSGMLIGLGEVLYDKLDSKLAHALMGINAVKAVEIGEGINASKMRGSCNNDALKDGKFLSNHSGGILGGISNGENLILKTYFKPTPSIFAKQESIDKFGNNLKFELKGRHDPCVGVRGSVVASAMVRLVLADCLLLNASANLNNLKNAYGLKLEHHHHHH	soluble
MGSDKIHHHHHHMMSLSNERLIHDPLEWDALVARYGLDCYYEYAYFKLAQEPEAVPEMYVHPSEFGILIYPYLKRRISGTPLQDLTTPYGYGGPVFVGLWSSDQIKDIRRHFLEYCQAERIVSETIRFHPLLENDELGRSWCETTTVLQQTVTVALSEPFEAIESQFSSMTRRNIRKAVREDVTVRVAGQEEYAKFIRLYRLTMDKHQADARYYFTDHYFRQFHDGRLPAELLVAEREGKIIAGCIVLYGQQFAHYHLGASDPAELSARPNHLLFAEMIRRAKALGKTALHLGGGTTRNEDDSLLAYKRSFSNRQTSFTLGTSVLHPLLYRQLSEQHFAHNVLSSQDWFPAYRTPVRQLSPRGEQSS	not soluble
SMSAPAGEPPAPVRLRKNVCYVVLAVFLSEQDEVLLIQEAKRECRGSWYLPAGRMEPGETIVEALQREVKEEAGLHCEPETLLSVEERGPSWVRFVFLARPTGGILKTSKEADAESLQAAWYPRTSLPTPLRAHDILHLVELAAQYRQQARHPLIL	soluble
MGSDKIHHHHHHMLRGGAPAVRMNAMKIISVNVGQPTALQVGQRTAVSGIRKHPVPGRVQVGEKGLEGDHVLNRRYHGGPDQAVYVYTREDYDHWTELLGRALEPGAFGENVLISGAESAEVRVGERFLLGAVEIEVTAPRLPCSTLGARMEDAGFVKRFKAARRPGFYARVLQSGDIGRGDPVTRTPAPDGAPTIGELFDADFAKSHDPAELRAWLTFPLGKRQRKEVEKWLAKAEG	not soluble
MGSDKIHHHHHHMSLYLDDTLSRIVELDLKDTRIVPFLAGEPGIGKTSFIYGIGERAGYKVFSISVNTLADKGDLTGARTLQDPADGKWKQMFFPHATFVEANDYALANPNETVVILLDEINRTDSDVTSASMTISTERRVGTTDLAPNVRLAVTGNLTGNVTHLDSASLTRFSLYEVKPSAETFMNIMGGRLNKYIRTVLTKYPEYIFMKPTTATALITTGDDDDDHTTNAKQMMDFNAVLGSDQDMVQFTAPRTIEGLSVWLNNADDDFLRLLLQEKVDGLARSMSLLQATLESHTGDTAFTAEVLSEMTNDLLSSASQAPSGPIKPFVYDRLAAAPSNTVLEQEVHTLSLNDRADVLLFALHDTVNNAAPSIIAHLASEGVLDELPKDRISKIVSLGPVPTANYHALTRQDTTLTRNLGPAVLGFLES	not soluble
MSQSTSAGGSQAVAQNPGAKLGFSMRSASIASDSVPCESGLCEAPPGVLSGAGTVFCESTYKVKIDNETVWQVPTRLKFVKKVGSGAYGCVASFEDTSASASEQGTEDDPSRREQSGETRTSQTGSAEGDSGTNKKVAVKKIGDLFRDLIDAKRIYREIKILKELKHENIINLVEILDPLTPDFEDIYLVSDLMDTDLHRVIYSRQPLTPEHHQYFLYQLLLGLSFLHQADIIHRDLKPSNILVNLNCDIKICDFGLARGLNMNPAPPPNLLPPATHRAGPAAAQDVVCTYTPPDNLSGAGKWGDQKLAAAAGAGSIAATRLVRLAHQQGSSLIGAQHQVPAKTDDASDDMELTDYVVTRWYRPPEILISPFCYSKPVDLWSVGCIFAELLGRRALFAGKDHFDQLRRIVRVLGRPSTAEINKVANEGRGRHFNNPSKGTSNTKRKRSEAARRFIESLPNSDPYKLEDLFPDASKAALDLLSNLLTFDPAKRITVQEALRHEYFEGLHSVEDEPTVTTPVNWSFDNFVPTKR	soluble
MQPNDITFFQRFQDDILAGRKTITIRDESESHFKTGDVLRVGRFEDDGYFCTIEVTATSTVTLDTLTEKHAEQENMTLTELKKVIADIYPGQTQFYVIEFKCL	soluble
MGSDKIHHHHHHMKILKHSLFTSVVNKMRLIHHQDDTAKLSLLITGMSGTGKSTLVDWYEQQYPVEYTPEVTLKRVICVHLTKPNSPINLLEQIINAMGTSYIPRRRTLNKLLHQLKCLLEACQTELIILDEAQECLPDSDGIKAQSMAKAFVAIIDKCNVPLILIGTPALKRLLKLKYLADVKNISREEQLSRRFIAPCQLNIFLSHCDAWVNVINFFGKTKGLRNLNTKDADILDRLYVATYGRIGLIKKLFAFTQLNETSDLQATFYDAYELVDTTGEANPFNQQDYTYAAIIKKAENIERIYFTHNKTHPSEKRVADRLFH	not soluble
MNVRNGKASTLRTNDVEPIKDSFSILIIGVDTSTTRASNGNPRSDSLILATFNVKDARVEMTSIPRDSYVHIEDSAKEINKYTKINAAHAYGGPELTMKTVEEEFKIPIDYYVRFDFDAFLKIIDALDGIDVDVPVNFTEQDSKDNQNAITLKKGPQHLNAEQALALARTRHIDSDIERGKRQQLIIKSIVSEATSVSSVSKYSDIIEVVGDNMKTNLTFNQMLSIAKFGMSNKIDIKSLNLKGDSNPMNGIYYYKLNESSVQSISNEFASELGIKQPFPGAAAYSDESSTASNLEHHHHHH	soluble
EAAFWGASNELLHDPTMIKEGSSWYALGTGLTEERGLRVLKSSDAKNWTVQKSIFTTPLSWWSNYVPNYGQNQWAPDIQYYNGKYWLYYSVSSFGSNTSAIGLASSTSISSGGWKDEGLVIRSTSSNNYNAIDPELTFDKDGNPWLAFGSFWSGIKLTKLDKSTMKPTGSLYSIAARPNNGGALEAPTLTYQNGYYYLMVSFDKCCDGVNSTYKIAYGRSKSITGPYLDKSGKSMLEGGGTILDSGNDQWKGPGGQDIVNGNILVRHAYDANDNGIPKLLINDLNWSSGWPSY	soluble
